Results reported in patent publication US20230002472A1 (NEURACLE GENETICS, published 2023).
Changes are numbered by the printed parent chain. Names and notes keep the numbering of the source. Each block holds one binder with its values, some of them ahead of it.

Key:
[1] = biological target: T1, tetrameric human PD-L1 (PD-L1-streptavidin-His tag) (human, UniProt Q9NZQ7 19-238, Alexa-488 label (labelled form used in Example 3 ELISA and in all flow cytometry)); test: ELISA, PD-1 protein coated at 200 ng/well, PD-L1 tetramer, anti-streptavidin-HRP
T1 construct: range 19-238; Expressed in HEK293F, purified on Ni-NTA; both are kept as one molecule; also called PD-L1 tetramer; tetrameric PD-L1-streptavidin; not shown: GS linker between PD-L1 and streptavidin; streptavidin fused at the C-terminal of PD-L1 to induce tetramerization; His tag
T1 sequence (Q9NZQ7 19-238): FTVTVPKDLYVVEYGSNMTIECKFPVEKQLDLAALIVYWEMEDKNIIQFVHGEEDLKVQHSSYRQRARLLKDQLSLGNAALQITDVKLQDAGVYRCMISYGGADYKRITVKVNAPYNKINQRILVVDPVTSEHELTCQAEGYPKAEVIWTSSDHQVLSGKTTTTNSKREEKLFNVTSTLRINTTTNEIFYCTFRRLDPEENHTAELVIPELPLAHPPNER

[2] = biological target: T1, tetrameric human PD-L1 …; test: flow cytometry of E. coli spheroplasts with tetrameric PD-L1-Alexa488
[3] = biological target: T1, tetrameric human PD-L1 …; test: flow cytometry of E. coli spheroplasts, 12.5 nM tetrameric PD-L1-Alexa488

B2: PD-1 variant CKJ 41A, S36P/C69A/L114P, displayed on E. coli (receptor)
chain: LDSPDRPWNPPTFSPALLVVTEGDNATFTCSFSNTPESFVLNWYRMSPSNQTDKLAAFPEDRSQPGQDARFRVTQLPNGRDFHMSVVRARRNDSGTYLCGAISLAPKAQIKESPRAELRVTERRAEVPTAHPSPSPRPAGQFQ
notes: Made by QuikChange PCR on CKJ 41; not shown: NlpA signal peptide / inner membrane anchor of the pMopac12-NlpA-FLAG vector; FLAG tag
- binding result [2]: binds

B4: PD-1 variant No. 45 (CKJ 45), S36P/C69S/K107N/L114P/F142L, displayed on E. coli (receptor)
chain: B2 chain with A69S, K107N, F142L
notes: not shown: NlpA signal peptide / inner membrane anchor of the pMopac12-NlpA-FLAG vector; FLAG tag
- binding result [3]: binds

B6: PD-1 variant No. 66 (CKJ 66), N9D/N25D/C69S/N92S/A101V, displayed on E. coli (receptor)
chain: B2 chain with N9D, N25D, P36S, A69S, N92S, A101V, P114L
notes: as for B4
- binding result [3]: binds

B7: PD-1 variant No. 46 (CKJ 46), S36P/C69S/L114P/P132L, displayed on E. coli (receptor)
chain: B2 chain with A69S, P132L
notes: as for B4
- binding result [3]: binds

B9: PD-1 variant CKJ 41G, S36P/C69G/L114P, displayed on E. coli (receptor)
chain: B2 chain with A69G
notes: as for B2
- binding result [2]: binds

B11: PD-1 variant JY101, N1S/F13I/L17M/S36P/M46I/C69T/G79R/G100V/L114P/A139L, displayed on E. coli (receptor)
chain: B2 chain with L1S, F13I, L17M, M46I, A69T, G79R, G100V, A139L
notes: From the secondary library on CKJ 41T; also called APD1-JY 101; not shown: NlpA signal peptide / inner membrane anchor of the pMopac12-NlpA-FLAG vector; FLAG tag
- binding result [2]: binds

B12: PD-1 variant No. 50 (CKJ 50), F13L/N25D/C69S/R88K/N92S/A125S, displayed on E. coli (receptor)
chain: B2 chain with F13L, N25D, P36S, A69S, R88K, N92S, P114L, A125S
notes: as for B4
- binding result [3]: binds

B13: PD-1 variant No. 44 (CKJ 44), F13I/M46I/N50S/C69Y/V127A, displayed on E. coli (receptor)
chain: B2 chain with F13I, P36S, M46I, N50S, A69Y, P114L, V127A
notes: as for B4
- binding result [3]: binds

B15: PD-1 variant No. 67 (CKJ 67), N34T/S36P/C69S/L114P, displayed on E. coli (receptor)
chain: B2 chain with N34T, A69S
notes: as for B4
- binding result [3]: binds

B17: PD-1 variant No. 49 (CKJ 49), F13L/N25D/C69S/N92S/R137K, displayed on E. coli (receptor)
chain: B2 chain with F13L, N25D, P36S, A69S, N92S, P114L, R137K
notes: as for B4
- binding result [3]: binds

B18: PD-1 variant No. 55 (CKJ 55), N25D/C69S/N92S/A101V, displayed on E. coli (receptor)
chain: B2 chain with N25D, P36S, A69S, N92S, A101V, P114L
notes: as for B4
- binding result [3]: binds

B19: PD-1_LDSS variant, F13L/N25D/C69S/N92S, displayed on E. coli (receptor)
chain: B2 chain with F13L, N25D, P36S, A69S, N92S, P114L
notes: Made by QuikChange PCR on the CKJ 49 vector; not shown: NlpA signal peptide / inner membrane anchor of the pMopac12-NlpA-FLAG vector; FLAG tag
- binding result [2]: binds

More lines, now with the values ahead:

- binding result [1]: binds
B1: GPD1-CKJ 49: glycosylated form of CKJ 49 (PD1 CKJ 49-His tag, expressed in HEK293F) (receptor)
chain: B2 chain with F13L, N25D, P36S, A69S, N92S, P114L, R137K
notes: Soluble, glycosylated, purified on Ni-NTA; coated on the ELISA plate; also called pMaz-PD1 CKJ 49-His tag; not shown: His tag

- binding result [3]: binds
B3: PD-1 variant CKJ 41T, S36P/C69T/L114P, displayed on E. coli (receptor)
chain: B2 chain with A69T
notes: also called APD1-CKJ 41T; pMopac12-NIpA-PD-1 CKJ 41T-FLAG; not shown: NlpA signal peptide / inner membrane anchor of the pMopac12-NlpA-FLAG vector; FLAG tag

- binding result [2]: binds
B5: PD-1 variant CKJ 41Y, S36P/C69Y/L114P, displayed on E. coli (receptor)
chain: B2 chain with A69Y
notes: as for B2

- binding result [3]: binds
B8: PD-1 variant No. 78 (CKJ 78), T12S/S36P/C69S/L114P, displayed on E. coli (receptor)
chain: B2 chain with T12S, A69S
notes: as for B4

- binding result [3]: binds
B10: PD-1 variant No. 56 (CKJ 56), S36P/C69S/N92K/L114P/H131R, displayed on E. coli (receptor)
chain: B2 chain with A69S, N92K, H131R
notes: as for B4

- binding result [3]: binds
B14: PD-1 variant No. 52 (CKJ 52), F13I/M46I/C69Y, displayed on E. coli (receptor)
chain: B2 chain with F13I, P36S, M46I, A69Y, P114L
notes: as for B4

- binding result [2]: binds
B16: PD-1 variant No. 41 (CKJ 41), S36P/C69S/L114P, displayed on E. coli (receptor)
chain: B2 chain with A69S
notes: as for B4
